For assay [1], the target named is T1, rat insulin receptor (INSR) on CHOK1 cells (rat, UniProt P15127 27-1383). The assay can be described thus: cell-based or functional assay.
Assay [2] concerns the target T2, cynomolgus insulin receptor (INSR) on CHOK1 cells (cyno, UniProt A0A7N9D6H3 48-1390). The assay can be described thus: cell-based or functional assay.
In assay [3] the target is T3, minipig insulin receptor (INSR) on CHOK1 cells (minipig, UniProt F1SCL0 28-758; F1SCL0 763-1382). The assay can be described thus: cell-based or functional assay.
Assay [4] addresses T4, human insulin receptor (INSR) on CHOK1 cells (human, UniProt P06213 28-1382). The assay can be described thus: cell-based or functional assay.
Assay [5] deals with T5, solubilized human INSR (B isoform) from CHO-hINSR-B cells, without insulin (human, UniProt P06213 28-1382).
T5 construct: mature; Detergent-solubilized full-length receptor in cell lysate, captured on the SPR chip by its carboxy-terminal part; also called solubilized INSR
The assay can be described thus: SPR (ProteOn XPR36), solubilized INSR-B captured by CT-3 mAb, Fab injected, -insulin.
Experimental: Kinetic analysis of antibody binding was performed using surface plasmon resonance using the ProteOn™ XPR36 (BioRad, Hercules, Calif.). […] Increasing concentrations of Fab ranging from 3.7-300 nM were injected over the captured receptor to obtain association and dissociation kinetics.

The target in assay [6] is T1, rat insulin receptor (INSR) on CHOK1 …. The assay can be described thus: flow cytometry on CHOK1 cells expressing the INSR ortholog; Fab, anti-human kappa FITC detection. In general terms: Flow cytometry measures light scatter and fluorescence of single cells or particles in a stream.
Experimental: (§1) For Fab staining, cells were stained with a secondary antibody, mouse anti-c-myc IgG (Roche, Basel, Switzerland). After washing twice with FACS buffer, cells were then stained with either goat anti-human IgG Allophycocyanin (Jackson Immuno Research, West Grove, Pa.) (for IgG analysis) or with goat anti-mouse IgG Allophycocyanin (Jackson Immuno Research, West Grove, Pa.) (For Fab analysis) at a 1:100 dilution for 20 minutes at 4° C. Cells were washed twice with FACS buffer and the cells were analyzed on a FACSCanto II™ flow cytometer (Becton Dickinson). Data were analyzed using both FlowJo™ (Tristar, Paso Robles, Calif.) and GraphPad Prism 5 (GraphPad Software, La Jolla, Calif. ).
For assay [7], the target named is T2, cynomolgus insulin receptor (INSR) on …. The assay is described as above.
Experimental: as §1
Assay [8] concerns the target T3, minipig insulin receptor (INSR) on …. The assay is described as above.
Experimental: as §1
Assay [9] deals with T4, human insulin receptor (INSR) on CHOK1 …. Described as above.
Experimental: as §1
For assay [10] the target is unchanged. The assay is described as follows: cell-based or functional assay. This is another data set of the same source.
Assay [11] concerns the target T5, solubilized human INSR (B isoform) from …. The assay is described as follows: SPR (ProteOn XPR36), solubilized INSR captured by CT-3 mAb, antibody injected, no insulin.
Experimental: Briefly, the GLM sensor chip was preconditioned with successive injections of 10 mM SDS, 50 mM NaOH, 100 mM Tris pH 9.5, and running buffer consisting of 10 mM HEPES, 150 mM sodium chloride, 3 mM EDTA, 0.05% Polysorbate 20 (Teknova, #H8022) at a flow rate of 100 μL per min. The chip surface was then activated with a five min injection of a freshly prepared 1:1 solution of 0.1M N-hydroxysuccinimide (NHS) and 0.4 M 1-ethyl-3-(3-dimethylaminopropyl) carbodiimide at a flow rate of 25 μL per min. Following activation, 10 μg/mL of CT-3 antibody in pH 4.5 acetate buffer was injected at a flow rate of 30 μL per min until ˜10,000 RU of the capture antibody was immobilized on the sensor surface. To block the surface, 1 M ethanolamine hydrochloride-NaOH pH 8.5 was injected for five min. Solubilized INSR diluted 1:1 in running buffer supplemented with 1 mg/ml BSA, with or without 1 μg/ml human insulin (Sigma, #A30590), was captured at a density of 1000-1200 RU on a vertical flow channel coated with the CT-3 antibody. […] Association was monitored for 5 min, and dissociation was monitored for 10 min. Surfaces were regenerated with 100 mM HCl following the anti-human INSR modulating antibody injections. Double-referenced data were curve fit with a simple 1:1 binding model using ProteOn™ software to yield kinetic parameters for on-rate (ka) and off-rate (kd). Equilibrium binding constant (KD) values were calculated from a ratio of the kinetic parameters (kdka).
The target in assay [12] is T1, rat insulin receptor (INSR) on CHOK1 …. The assay is described as follows: flow cytometry on CHOK1 cells expressing the INSR ortholog; IgG, anti-human IgG APC detection.
Experimental: as §1
Assay [13] deals with T2, cynomolgus insulin receptor (INSR) on …. Described as above.
Experimental: as §1
Assay [14] addresses T3, minipig insulin receptor (INSR) on …. The assay is described as above.
Experimental: as §1
Assay [15] has as its target T4, human insulin receptor (INSR) on CHOK1 …. Described as above.
Experimental: as §1

These results are taken from patent US20180251562A1 (XOMA US, published 2018).

B1: XPA.15.247 Fab (Fab, V domains shown)
VH: EVQLVETGGGVVQPGRSLRLSCAASGFTFSSYAMHWVRQAPGKGLEWVAVISYDGSNKYYADSVKGRFTISRDNSKNTLYLQMNSLRAEDTAVYYCARHEWGFGMDVWGQGTTVTVSS
VL: DVVMTQSPLSLSVTLGQPASISCRSSLSLVYGDENTYLNWFQQRPGQSPRRLLYKVSDRDSGVPDRFSGSGSGTDFTLKISRVEADDVGVYYCMQGTHWPYTFGQGTKLEIKR
notes: Monomeric Fab; also called Fab247; XPA.15.247 parent Fab
With B1, the “EC50 (nM), pAKT signaling assay” value worked out at 46.6 nM in [1], 82.4 nM in [2], 20.7 nM in assay [3] and 44 nM in assay [4]. In assay [5], the Kd (as a rule, the equilibrium constant for the complex coming apart) is 56 nM. In addition, the koff (usually a measure of how fast the partners let go of each other) in [5] stood at 0.00211 s⁻¹. Further, the kon (commonly the second-order rate constant of association) in assay [5] was found to be 37400 M⁻¹ s⁻¹. The EC50 (usually the concentration giving half of the maximal effect) in assay [6] was 11.8 nM; in assay [7] it was 93 nM; in [8], 39.8 nM; in assay [9], 34.8 nM.

B2: XPA.15.247 parent antibody (IgG) (antibody, V domains shown)
VH: EVQLVETGGGVVQPGRSLRLSCAASGFTFSSYAMHWVRQAPGKGLEWVAVISYDGSNKYYADSVKGRFTISRDNSKNTLYLQMNSLRAEDTAVYYCARHEWGFGMDVWGQGTTVTVSS
VL: DVVMTQSPLSLSVTLGQPASISCRSSLSLVYGDENTYLNWFQQRPGQSPRRLLYKVSDRDSGVPDRFSGSGSGTDFTLKISRVEADDVGVYYCMQGTHWPYTFGQGTKLEIKR
notes: Tested as IgG; also called XPA.15.247 antibody
B2: the “EC50, pAKT assay at the EC80 concentration of insulin” value in [10] turned out to be 34.7 nM. Moreover, the “EC50 (nM), pAKT signaling assay” value turned out to be 46.2 nM in assay [1], 30.7 nM in [2], 20.7 nM in [3] and 34.5 nM in assay [4]. In assay [11], this molecule gave a Kd of 10 nM. This molecule also returned a koff in [11] of 0.000471 s⁻¹. Besides, the kon in assay [11] came to 38500 M⁻¹ s⁻¹. Moreover, the EC50 in assay [12] came out at 9.7 nM; in assay [13], 13.6 nM; in [14], 12 nM; in assay [15] it was 8.8 nM.

B3: XPA.15.247.2.011 IgG (antibody, V domains shown)
VH: EVQLVETGGGVVQPGRSLRLSCAASGFTFSSYAMHWVRQAPGKGLEWVAVISYSGSNKYYADSVKGRFTISRDNSKNTLYLQMNSLRAEDTAVYYCARHEWGFGFDYWGQGTTVTVSS
VL: DVVMTQSPLSLPVTLGQPASISCRSSHSLVYGDGNTYLNWFHQRPGQSPRRLIYKVSNRDSGVPDRFAGSGSGTDFTLKISRVEADDFGVFYCMQGTHWPYTFGQGTKLEIKR
notes: Tested as IgG; also called XPA.15.247.011
Take B3: the “EC50 (nM), pAKT signaling assay” value in assay [1] was 3.1 nM; in [2] it was 1.3 nM; in assay [3], 1.7 nM; in [4] it was 1.5 nM. The EC50 in [12] came out at 1.3 nM; in assay [13], 3.3 nM; in assay [14], 1.5 nM; in assay [15], 1 nM.

B4: XPA.15.247.2.011 Fab (Fab, V domains shown)
VH: EVQLVETGGGVVQPGRSLRLSCAASGFTFSSYAMHWVRQAPGKGLEWVAVISYSGSNKYYADSVKGRFTISRDNSKNTLYLQMNSLRAEDTAVYYCARHEWGFGFDYWGQGTTVTVSS
VL: DVVMTQSPLSLPVTLGQPASISCRSSHSLVYGDGNTYLNWFHQRPGQSPRRLIYKVSNRDSGVPDRFAGSGSGTDFTLKISRVEADDFGVFYCMQGTHWPYTFGQGTKLEIKR
notes: Fab; also called XPA.15.247.011
On to B4, for which the “EC50 (nM), pAKT signaling assay” value in assay [1] amounted to 7.8 nM; in assay [2], 6.2 nM; in assay [3], 4.4 nM; in assay [4] it was 5 nM. The Kd in assay [5] worked out at 10 nM. This molecule came in with a koff in [5] of 0.000705 s⁻¹. In [5], this molecule came in with a kon of 70400 M⁻¹ s⁻¹. For the same molecule, the EC50 in assay [6] amounted to 1.9 nM; in assay [7] it was 17.2 nM; in assay [8] it was 5.8 nM; in assay [9], 2.7 nM.

B5: XPA.15.247.2.014 IgG (antibody, V domains shown)
VH: EVQLVETGGGVVQPGRSLRLSCAASGFTFSSYAMHWVRQAPGKGLEWVAVISYSGSNKYYADSVKGRFTISRDNSKNTLYLQMNSLRAEDTAVYYCARHEWGFGFDYWGQGTTVTVSS
VL: DVVMTQSPLSLPVTLGQPASISCRSSQSLVYGDGNTYLNWFQQRPGQSPRRLIYKVSKRDSGVPDRFSGSGSGTDFTLKISRVEAEDVGVYYCMQGTYWPMTFGGGTKLEIKR
notes: Tested as IgG; also called XPA.15.247.014
On to B5, for which the “EC50 (nM), pAKT signaling assay” value in [1] worked out at 4.2 nM; in [2], 1.7 nM; in assay [3], 2.3 nM; in assay [4] it was 2.1 nM. Also, the EC50 in [12] came to 0.7 nM; in [13], 1.1 nM; in assay [14], 0.9 nM; in [15], 0.7 nM.

B6: XPA.15.247.2.014 Fab (Fab, V domains shown)
VH: EVQLVETGGGVVQPGRSLRLSCAASGFTFSSYAMHWVRQAPGKGLEWVAVISYSGSNKYYADSVKGRFTISRDNSKNTLYLQMNSLRAEDTAVYYCARHEWGFGFDYWGQGTTVTVSS
VL: DVVMTQSPLSLPVTLGQPASISCRSSQSLVYGDGNTYLNWFQQRPGQSPRRLIYKVSKRDSGVPDRFSGSGSGTDFTLKISRVEAEDVGVYYCMQGTYWPMTFGGGTKLEIKR
notes: Fab; also called XPA.15.247.014
In the case of B6, the “EC50 (nM), pAKT signaling assay” value in [1] was around 15.6 nM; in [2], around 15.1 nM; in assay [3], 8.4 nM; in assay [4] it was 9.6 nM. Moreover, the Kd in assay [5] is 3.7 nM. Besides, the koff in assay [5] came to 0.000705 s⁻¹. Also, the kon in assay [5] was 137000 M⁻¹ s⁻¹. In addition, the EC50 in [6] is 1.7 nM; in assay [7] it was 10.2 nM; in assay [8], 2.9 nM; in assay [9] it was 1.8 nM.
